Tests used:
Type in all cases: cell-based
[1] = molecular target: T1, interaction between Cabin 1-14 and full length calcineurin β2 (H160N) (Homo sapiens, UniProt P16298, H160N); assay: mammalian two-hybrid assay in Jurkat T cells (luciferase reporter); details: Jurkat T cells stimulated with PMA and ionomycin
T1 construct: expressed in transfected cells; host or cells: Jurkat T cells
Description: (§1) A mammalian two-hybrid system was established in Jurkat T cells by fusing calcineurin with the Gal4 DNA binding domain and Cabin 1-14 with the VP16 activation domain (Hsu et al., Proc. Natl. Acid Sci. USA 91:3181-3185 (1994)). The fusion plasmids for mammalian two-hybrid assays were constructed as follows: The cDNAs of calcineurin Aβ2 wild type and H160N mutant were fused to the GAL4 DB in the pM vector (obtained from Clontech, Palo Alto, Calif.) (pMCNβ2 and PMCNβ2 (H160N), and the cDNA of Cabin 1-14 was fused to the VP16 AD in the pVP16 vector (pVPCabin 1-14). Jurkat T cells were transfected with 5 μg of pMCβ2 or pMCβ2 (H160N), 5 μg of pVPCabin 1-14, 1 μg of pCMV-βGal, and 2 μg of pg5Luc, a luciferase reporter plasmid containing GAL4 promoter, by electroporation (960 μF, 250V). After 48 hr, cells were stimulated with 40 nM PMA and 2.5 μM ionomycin, either alone or in combination, for 6 hr before luciferase activity was measured for each sample. The luciferase reporter gene assay reagents were obtained from Promega, Madison, Wis., and the assay was performed per manufacturer's instructions. […] Where appropriate, the transfection efficiency was measured by co-transfecting 2 μg of CMV-driven β-galactosidase expression vector and measuring enzymatic β-galactosidase activity (Ausubel et al., Current Protocols in Molecular Biology (John Wiley & Sons, Inc., New York, 1994)).

[2] = molecular target: T2, interaction between Cabin 1-14 and wild type calcineurin β2 (Homo sapiens, UniProt P16298); assay: as above; details: Jurkat T cells stimulated with PMA and ionomycin
T2 construct: expressed in transfected cells; host or cells: Jurkat T cells
Description: as §1

[3] = molecular target: T3, wild type full-length calcineurin (Homo sapiens, UniProt P16298); assay: co-immunoprecipitation of Cabin 1-14 and calcineurin from Jurkat T cells; details: PMA, ionomycin or both for 3 hrs
T3 construct: expressed in transfected cells; host or cells: Jurkat T cells
Description: In the mammalian two-hybrid system, the interaction between full-length calcineurin and Cabin 1-14 required ionomycin, which is consistent with the activation of full-length calcineurin by calcium and calmodulin. Unexpectedly, this interaction also required PMA (see FIG. 3C). Since PMA is known to activate PKC, the effect of a PKC-specific inhibitor, bisindolylmaleimide (Toullec et a., J. Biol. Chem. 266:15771-15781 (1991)), was examined on the PMA/ionomycin-stimulated interaction between Cabin 1-14 and calcineurin. […] In addition to the mammalian two-hybrid system, the interaction of Cabin 1-14 and the wild type full-length calcineurin was also confirmed by co-immunoprecipitation (See FIG. 3E). […] Jurkat T cells transfected with pSG-HACNAβ2 and pSG-Cabin 1-14 were stimulated with PMA, ionomycin or both for 3 hrs. The cells were lysed in a lysis buffer (20 mM TrisHCl, pH 7.4, 0.1M NaCl, 1% Triton X-100, 0.5% NP-40 and 0.5 mM PMSF). Cell lysates thus prepared were incubated with anti-Cabin 1 polyclonal antibodies and protein A/G agarose (Santa Cruz) for 2 hr., washed with lysis buffer and boiled in SDS sample buffer. The samples were subjected to 10% SDS-PAGE, transferred to nitrocellulose which was probed with anti-HA monoclonal antibodies and developed with ECL reagents (Amersham, Arlington Heights, Ill.). […]

IL-2 promoter = IL-2 promoter luciferase reporter gene assay in Jurkat T cells; details: PMA and ionomycin
[4] = system: AP-1 binding sites derived from the IL-2 promoter; assay: AP-1 luciferase reporter gene assay in Jurkat T cells; details: coexpression
[5] = system: ARRE (Oct1/AP-1) binding sites derived from the IL-2 promoter; assay: ARRE (Oct1/AP-1) luciferase reporter gene assay in Jurkat T cells; details: coexpression
[6] = system: NF-AT binding sites derived from the IL-2 promoter; assay: NF-AT luciferase reporter gene assay in Jurkat T cells; details: coexpression
[7] = system: NF-κB binding sites derived from the IL-2 promoter; assay: NF-κB luciferase reporter gene assay in Jurkat T cells; details: coexpression
[8] = system: calcineurin phosphatase activity; assay: calcineurin-mediated dephosphorylation of ΔNF-AT1 in Jurkat T cells (Western blot)
Description: To determine if the inhibition of IL-2 promoter by Cabin1-14 is mediated through the inhibition of calcineurin phosphatase activity in vivo, the effect of Cabin 1-14 on the calcineurin-mediated dephosphorylation of the N-terminal fragment of NF-ATI (ΔNF-AT1), upon treatment with ionomycin and PMA, was examined. Jurkat T cells were transfected with expression vectors for Cabin 1-14 (pSGCabin 1-14) and for HA-epitope tagged, truncated NF-AT1 (1-460) fused to green fluorescent protein (pSG-ΔNF-AT1 (1-460) by electroporation as described above. After 48 hrs, cells were treated with PMA and ionomycin, either alone or in combination, for another 1 hr. Whole-cell lysates were prepared and subjected to 8% SDS-polyacrylamide gel electrophoresis, transferred to nitrocellulose membrane (Schleicher & Schuell, New Hampshire), probed with anti-HA epitope monoclonal antibody, and developed with ECL reagents (Amersham, Arlington Heights, Ill.).

T3 sequence (P63098 2-170 partner limits assumed, other chains not shown): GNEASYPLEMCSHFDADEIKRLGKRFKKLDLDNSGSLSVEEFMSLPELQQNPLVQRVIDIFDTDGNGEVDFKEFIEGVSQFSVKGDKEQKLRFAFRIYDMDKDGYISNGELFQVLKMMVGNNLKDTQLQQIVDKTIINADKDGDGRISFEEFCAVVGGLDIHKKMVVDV

interaction with full length calcineurin β2 (H160N) mutant [1]: strong interaction
interaction with wild type calcineurin relative to the mutant enzyme [2]: several fold weaker
B1: Cabin 1-14: C-terminal fragment of Cabin 1 polypeptide, SEQ ID NO:5 (protein, listed as Homo sapiens)
chain: KFPPEITVTPPTPTLLSPKGSISEETKQKLKSAILSAQSAANVRKESLCQPALEVLETSSQESSLESETDEDDDYMDI
coprecipitation with wild type calcineurin [3]: coprecipitated only upon stimulation of Jurkat T cells with both PMA and ionomycin
coprecipitation with wild type calcineurin ([3]; listed as Cabin1-14): dependent on both PKC and calcium stimulation
effect on IL-2 reporter gene activation (IL-2 promoter): potently inhibited
effect on IL-2 reporter gene activation (IL-2 promoter; listed as Cabin1-14): inhibit
effect on AP-1 reporter gene [4]: inhibited
effect on AP-1 reporter gene ([4]; listed as Cabin1-14): inhibits
effect on ARRE (Oct1/AP-1) reporter gene [5]: inhibited
effect on ARRE (Oct1/AP-1) reporter gene ([5]; listed as Cabin1-14): inhibits
effect on NF-AT reporter gene [6]: inhibited
effect on NF-AT reporter gene ([6]; listed as Cabin1-14): inhibits
effect on NF-κB reporter gene [7]: inhibited
effect on NF-κB reporter gene ([7]; listed as Cabin1-14): inhibits
inhibition of ΔNF-AT1 dephosphorylation in the presence of PMA versus in its absence ([8]; ionomycin with PMA versus without): larger extent
effect on dephosphorylation of ΔNF-AT1 ([8]; overexpression, ionomycin in the presence or absence of PMA): inhibited
